According to PMC11479944:

Tests used:
[1] = biological target: rat GluA2flip(Q) isoform, tagged with a FLAG epitope near its C terminus (rat)
[2] = biological target: GluA2 N-terminal domain (isolated GluA2 NTD) (rat); assay: SEC-MALS; GluA2 NTD injected at 13 mg/mL and 1 mg/mL (legend; the text says 1-2 mg ml^-1), 100 µl samples, Superdex S200 10/300, 10 mM HEPES, 150 mM KCl, pH 7.5; only dimers seen, no step from dimers to tetramer

Substance | recovery from desensitization, patch-clamp recordings of GluA2 expressed in HEK293 cells, switching from pH 7.4 to pH 5.5 (pH 6.4 also tested) [1] [fold] | stoichiometry N [2]
rat GluA2flip(Q) isoform, tagged with a FLAG epitope near its C terminus (receptor) | 2 | 
GluA2 N-terminal domain (isolated GluA2 NTD) (domain or fragment) |  | 2
